Experimental findings from paper PMC9646525, “Cryo-EM structure of the SEA complex” (Nature, 2022) are described below.

B1: Npr2 (natural protein, UniProt P39923 1-615, looked up)
chain: MLSYFQGFVPIHTIFYSVFHPTEGSKIKYEFPPNNLKNHGINFNTFKNYIIPKPILCHKLITFKYGTYRIVCYPVTINSPIYARNFFSFNFVFVFPYDCETSPYEPAITRLGKMFKVLEEQNQLLSKSERDPVFFDLKVLENSTTTPSTAGPSSTPNPSSNTTPTHPTSEKDTKDMRSSRYSDLIKDLGLPQSAFSIQDLLMRIFQDLNNYSECLIPIDEGNAVDIKIFPLLRPPTTCVSLEDVPLSSVNLKKIIDVNWDPTMMSIVPYIDGLNSIAKISKLSNSDPGLVIECIRHLIYYKCVTLSDIFQFSNIYAPSSLIRNFLTDPLMASDCQSYVTFPEVSKISNLPLNKSLGSGDQDSPSFSVRRKSKSSSIPSNPDSRTTSFSSTSRVSQNSSLNSSFSSIYKDWRQSQTSCSSSNIHVINNRNRFLPTRSCLFDLYRSLSQGQTLKTWYESKYMILKENNIDIRRFITFGLEKRIIYRCYSFPVMINAGSREPKEMTPIITKDLVNNDKLLEKRNHNHLLSATGSRNTAQSGNLKPERPSKVSFEMQRVSSLATGKSTMPKLSDEEEGILEESIRNAETFDKICVLLSKPKLEVESYLNELGEFKVINS
notes: Npr2, S. cerevisiae, endogenous subunit of the SEAC (SEACIT, wing); Native protein of the purified complex; two copies in the SEAC; source: endogenous, yeast cells expressing Sea4-TAP or Sea1-TAP; in lysate and co-purified with the tagged subunit (IgG Dynabeads, TEV elution)
B2: Sec13 (natural protein, UniProt Q04491 1-297, looked up)
chain: MVVIANAHNELIHDAVLDYYGKRLATCSSDKTIKIFEVEGETHKLIDTLTGHEGPVWRVDWAHPKFGTILASCSYDGKVLIWKEENGRWSQIAVHAVHSASVNSVQWAPHEYGPLLLVASSDGKVSVVEFKENGTTSPIIIDAHAIGVNSASWAPATIEEDGEHNGTKESRKFVTGGADNLVKIWKYNSDAQTYVLESTLEGHSDWVRDVAWSPTVLLRSYLASVSQDRTCIIWTQDNEQGPWKKTLLKEEKFPDVLWRASWSLSGNVLALSGGDNKVTLWKENLEGKWEPAGEVHQ
notes: Sec13, S. cerevisiae, endogenous subunit of the SEAC (SEACAT, core); Native protein of the purified complex; two copies in the SEAC; source: endogenous, yeast cells expressing Sea4-TAP; in lysate and co-purified with Sea4-TAP (IgG Dynabeads, TEV elution)
B3: Sea3 (natural protein, UniProt Q03897 1-1148, looked up)
chain: MCSSINEGPYNSPTFGKSLSLKVDGGFNAVSINPSGRDIVLASRQGLYIIDLDDPFTPPRWLHHITPWQVADVQWSPHPAKPYWIVSTSNQKAIIWNLAKSSSNAIEFVLHGHSRAITDINFNPQHPDVLATCSVDTYVHAWDMRSPHRPFYSTSSWRSAASQVKWNYKDPNVLASSHGNDIFVWDLRKGSTPLCSLKGHVSSVNSIDFNRFKYSEIMSSSNDGTVKFWDYSKSTTESKRTVTTNFPIWRGRYLPFGEGYCIMPMVGGNNAVYLINLCDDDDSEQNKKTKLQPIYAFKGHSDRVIDFLWRSRHTCDGDYDDREFQLVTWSKDCDLKLWPISDSIYGKVNFDRGKRLEEKLPDYDYCSYNKEPENRENVQKNEFRRLRENFVTTSGLKKNKTNHITWLSGIRMNSATSQEDLFNETKIQNLGEEVSAIGHKFPKVVFEKISVSTRELCLTLNGPWSEENPDDYIFLRISINFPLNYPNKGDPPKFTIEENSNLTMSKRQEILSNLATIGQKYTDSNLYCLEPCIRFVLGEKVSLEDIEEGQEPLLNFDIADHIDFEELSSLDSSYSDSQNPENLSSQSDIESYKEALVFPDTSNQGLDFGRNLALDTTPVPNGCGSCWTATGELFCFFANEKKPEKKQNAIIKLSQKEAGVEKHPFKIEPQVLYDKEVDSSVITAADELKARPKRYVDTLGLGGGTNGDSRTYFDDETSSDDSFDSVADDWDDILRNDIIVRTKIPILRGNFKAFSSVHSESGKTVESTKKNKNLVISKNFSSLLSDRKELALEYLFMDATPEGFARNNALVAEKFDLDEISHCWQILSDMLIDQSDYDPYTTIWNNHPMGIKWFIKEAIVYFERQQNLQMLAMLCCVILSARRKKIPARYYGQELENMEGTIVFNDNESQNTSFWKGSDAFSTRSRSSTVTPNFYGNHLRGKNIHGGDNSSIRSDDHHARLRTHNTLNGSSKFTEPAQKQGSRAISSSPFHSRMPDIKVELLHDDIIEAYEQEDLLHLEVSDIPKFQTYIYQYSKLLFRWGLPLERVKILKVSTDFRSSYSSQGIPPNNNKKSPYNGVLTHWIENNEFGEEKFLARNCNYCDLRVTRSSFICGNCQHVLHSSCARIWWEIGDECPSGCGCNCPEMFDA
notes: Sea3, S. cerevisiae, endogenous subunit of the SEAC; Sea3^SIP (Sea3^Nter) lies in the wing, Sea3^SAP (Sea3^Cter) in the core; Native protein of the purified complex; two copies in the SEAC; source: endogenous, yeast cells expressing Sea4-TAP; in lysate and co-purified with Sea4-TAP (IgG Dynabeads, TEV elution)

Holding throughout (test): cryo-EM structure; endogenous SEAC purified from yeast via Sea4-TAP (IgG Dynabeads, TEV elution in 20 mM HEPES-NaOH pH 7.4, 300 mM NaCl, 2 mM DTT), on graphene-oxide-coated grids
What all share (conditions): both partners purified

One experiment addresses T1, Sea1 (S. cerevisiae (endogenous in yeast …, UniProt P47170 1-1584)).
T1 construct: Sea1 (Iml1), S. cerevisiae, endogenous subunit of the SEAC (SEACIT, wing); Native protein of the purified complex; two copies in the SEAC; also called Iml1; Sea1/Iml1; source: endogenous, yeast cells expressing Sea4-TAP; in lysate and co-purified with Sea4-TAP (IgG Dynabeads, TEV elution)

The target of the experiment “Sea3” is B3.
For a further experiment, the target named is T2, Sea2 (S. cerevisiae (endogenous in yeast …, UniProt Q08281 1-1341)).
T2 construct: Sea2, S. cerevisiae, endogenous subunit of the SEAC (SEACAT, core); Native protein of the purified complex; two copies in the SEAC; source: endogenous, yeast cells expressing Sea4-TAP; in lysate and co-purified with Sea4-TAP (IgG Dynabeads, TEV elution)
T2 sequence (looked up): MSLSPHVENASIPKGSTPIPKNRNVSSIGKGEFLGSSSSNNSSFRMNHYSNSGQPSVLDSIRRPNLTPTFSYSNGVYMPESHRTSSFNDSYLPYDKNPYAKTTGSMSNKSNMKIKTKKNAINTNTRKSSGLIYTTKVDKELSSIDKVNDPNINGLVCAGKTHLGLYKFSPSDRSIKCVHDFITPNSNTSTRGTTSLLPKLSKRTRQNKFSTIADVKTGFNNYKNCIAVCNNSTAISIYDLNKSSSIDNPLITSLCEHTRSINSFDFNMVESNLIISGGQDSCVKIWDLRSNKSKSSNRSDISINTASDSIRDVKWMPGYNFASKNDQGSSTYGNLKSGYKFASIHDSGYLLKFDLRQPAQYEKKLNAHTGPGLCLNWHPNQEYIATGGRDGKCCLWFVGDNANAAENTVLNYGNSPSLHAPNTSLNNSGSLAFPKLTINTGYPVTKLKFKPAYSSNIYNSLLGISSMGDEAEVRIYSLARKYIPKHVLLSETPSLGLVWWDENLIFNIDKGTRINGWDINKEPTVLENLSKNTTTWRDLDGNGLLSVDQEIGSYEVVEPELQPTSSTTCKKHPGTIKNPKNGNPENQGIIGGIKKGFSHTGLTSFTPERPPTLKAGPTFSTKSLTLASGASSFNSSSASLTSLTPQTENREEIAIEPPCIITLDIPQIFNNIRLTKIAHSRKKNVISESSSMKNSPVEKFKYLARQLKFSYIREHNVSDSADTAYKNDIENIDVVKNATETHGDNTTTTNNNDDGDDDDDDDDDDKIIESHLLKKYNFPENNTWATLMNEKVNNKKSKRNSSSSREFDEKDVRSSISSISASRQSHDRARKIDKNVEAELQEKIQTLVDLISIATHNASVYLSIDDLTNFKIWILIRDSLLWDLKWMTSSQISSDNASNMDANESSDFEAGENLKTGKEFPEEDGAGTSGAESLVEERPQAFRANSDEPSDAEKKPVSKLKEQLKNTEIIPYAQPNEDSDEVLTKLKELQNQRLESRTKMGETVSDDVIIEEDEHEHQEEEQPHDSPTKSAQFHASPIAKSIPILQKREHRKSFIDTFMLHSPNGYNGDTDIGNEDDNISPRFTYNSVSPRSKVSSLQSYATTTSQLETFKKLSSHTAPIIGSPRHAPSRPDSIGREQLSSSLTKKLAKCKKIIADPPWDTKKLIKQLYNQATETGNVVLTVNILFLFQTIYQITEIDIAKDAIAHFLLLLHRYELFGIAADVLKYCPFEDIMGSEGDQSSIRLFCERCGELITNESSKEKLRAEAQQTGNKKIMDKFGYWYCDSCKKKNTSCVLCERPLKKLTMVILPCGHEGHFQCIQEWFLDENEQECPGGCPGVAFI

T1 sequence (P47170 whole entry): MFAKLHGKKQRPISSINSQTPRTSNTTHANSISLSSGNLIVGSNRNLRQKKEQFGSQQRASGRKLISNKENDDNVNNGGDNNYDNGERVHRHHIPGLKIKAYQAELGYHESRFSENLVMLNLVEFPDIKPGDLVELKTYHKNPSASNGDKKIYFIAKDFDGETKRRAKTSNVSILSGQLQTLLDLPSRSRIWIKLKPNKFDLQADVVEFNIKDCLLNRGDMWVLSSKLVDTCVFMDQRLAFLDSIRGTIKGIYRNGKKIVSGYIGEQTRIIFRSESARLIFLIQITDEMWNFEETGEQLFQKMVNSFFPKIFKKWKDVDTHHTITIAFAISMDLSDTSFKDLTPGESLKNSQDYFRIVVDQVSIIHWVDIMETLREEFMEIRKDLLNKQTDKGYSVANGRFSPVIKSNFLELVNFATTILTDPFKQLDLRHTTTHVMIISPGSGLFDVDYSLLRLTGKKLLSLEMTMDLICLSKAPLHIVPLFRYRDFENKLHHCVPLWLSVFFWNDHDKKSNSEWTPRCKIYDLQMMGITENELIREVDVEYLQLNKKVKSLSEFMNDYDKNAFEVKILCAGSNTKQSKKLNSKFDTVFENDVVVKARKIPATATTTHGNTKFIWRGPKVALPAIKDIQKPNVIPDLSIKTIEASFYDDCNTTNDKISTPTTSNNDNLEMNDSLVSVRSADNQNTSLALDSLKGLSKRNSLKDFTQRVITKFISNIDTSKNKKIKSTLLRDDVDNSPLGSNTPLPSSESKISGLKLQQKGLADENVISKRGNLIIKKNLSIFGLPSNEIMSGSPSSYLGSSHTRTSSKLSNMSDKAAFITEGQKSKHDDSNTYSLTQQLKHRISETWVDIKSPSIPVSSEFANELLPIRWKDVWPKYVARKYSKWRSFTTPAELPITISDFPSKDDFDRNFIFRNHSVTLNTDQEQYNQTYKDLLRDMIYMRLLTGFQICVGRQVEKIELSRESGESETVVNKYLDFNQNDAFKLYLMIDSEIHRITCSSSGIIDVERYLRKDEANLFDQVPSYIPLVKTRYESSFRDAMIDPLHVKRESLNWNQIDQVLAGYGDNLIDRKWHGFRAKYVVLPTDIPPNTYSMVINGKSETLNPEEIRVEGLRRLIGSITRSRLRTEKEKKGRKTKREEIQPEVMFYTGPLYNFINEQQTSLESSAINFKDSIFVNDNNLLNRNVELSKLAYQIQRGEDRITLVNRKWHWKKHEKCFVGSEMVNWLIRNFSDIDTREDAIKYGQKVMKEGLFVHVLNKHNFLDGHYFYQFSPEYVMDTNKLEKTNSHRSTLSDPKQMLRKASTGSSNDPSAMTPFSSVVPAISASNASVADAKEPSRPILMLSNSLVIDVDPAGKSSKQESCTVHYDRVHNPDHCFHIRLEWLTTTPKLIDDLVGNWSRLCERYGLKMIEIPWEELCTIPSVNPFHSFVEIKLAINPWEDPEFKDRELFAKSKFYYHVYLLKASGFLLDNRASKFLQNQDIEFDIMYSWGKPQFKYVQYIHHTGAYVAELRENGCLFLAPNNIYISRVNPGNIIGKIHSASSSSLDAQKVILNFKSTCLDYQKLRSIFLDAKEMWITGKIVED

Regarding B1, the binding result in the experiment with Sea1 and with Sea3 was “binds” each time.
Take B2: the binding result in the experiment with Sea3 is “binds”.
Regarding B3, the binding result with Sea1 and with Sea2 was “binds” each time.
